Source: patent US20240383982A1 (Genmab, published 2024)

T1: recombinant hIgG1 Fc-tagged cynomolgus monkey B7H4 (Creative BioMart, cat. no. VTCN1-1517R) (cynomolgus monkey, UniProt Q7Z7D3 25-259 (human entry))
T1 construct: Bought protein; also called cynomolgus monkey B7H4 extracellular domain
T1 sequence: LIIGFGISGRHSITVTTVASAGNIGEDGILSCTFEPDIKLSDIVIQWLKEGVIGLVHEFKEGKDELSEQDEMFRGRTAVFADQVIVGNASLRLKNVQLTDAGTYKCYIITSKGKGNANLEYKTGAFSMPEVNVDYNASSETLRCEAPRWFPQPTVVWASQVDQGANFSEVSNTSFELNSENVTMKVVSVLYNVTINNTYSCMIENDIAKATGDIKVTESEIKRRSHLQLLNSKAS

T2: human recombinant His tagged B7H4 protein (Sino Biological cat. no. 10738-H08H) (human, UniProt Q7Z7D3 29-258)
T2 construct: Bought protein; theoretical mass 26.8 kDa; also called human B7H4; human B7H4 extracellular domain
T2 sequence: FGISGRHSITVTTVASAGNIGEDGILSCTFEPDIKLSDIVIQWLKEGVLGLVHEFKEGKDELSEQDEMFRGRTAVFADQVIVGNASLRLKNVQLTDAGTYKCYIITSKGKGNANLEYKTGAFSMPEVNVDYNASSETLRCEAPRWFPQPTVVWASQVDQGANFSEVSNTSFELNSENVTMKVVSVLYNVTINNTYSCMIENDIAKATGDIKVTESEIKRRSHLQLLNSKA

B1: bsIgG1-huCD3-H101G-FEALxB7H4-C1-N52S-FEAR (bispecific antibody)
heavy 1: not shown
light 1: not shown
heavy 2: QVQLQQWGAGLLKPSETLSLTCAVYGGSFSGYYWSWIRQPPGKGLEWIGEISHSGSTNYNPSLKSRVTISIDTSKNQFSLKLTSVTAADTAVFYCARGLFNWNFDSWGQGTLVTVSSASTKGPSVFPLAPSSKSTSGGTAALGCLVKDYFPEPVTVSWNSGALTSGVHTFPAVLQSSGLYSLSSVVTVPSSSLGTQTYICNVNHKPSNTKVDKRVEPKSCDKTHTCPPCPAPEFEGGPSVFLFPPKPKDTLMISRTPEVTCVVVAVSHEDPEVKFNWYVDGVEVHNAKTKPREEQYNSTYRVVSVLTVLHQDWLNGKEYKCKVSNKALPAPIEKTISKAKGQPREPQVYTLPPSREEMTKNQVSLTCLVKGFYPSDIAVEWESNGQPENNYKTTPPVLDSDGSFFLYSRLTVDKSRWQQGNVFSCSVMHEALHNHYTQKSLSLSPGK
light 2: DIQMTQSPSSLSASVGDRVTITCRASQGIRNDLGWYQQKPGKAPKRLIYGASSLQSGVPSRFSGSGSGTEFTLTISSLQPEDFATYYCLQHNSYPRTFGQGTTVEIKRTVAAPSVFIFPPSDEQLKSGTASVVCLLNNFYPREAKVQWKVDNALQSGNSQESVTEQDSKDSTYSLSSTLTLSKADYEKHKVYACEVTHQGLSSPVTKSFNRGEC
notes: also called bslgG1-huCD3-H101G-FEALxB7H4-C1-N52S-FEAR; BslgG1-huCD3-H101G-FEALxB7H4-C1-N52S-FEAR
B2: IgG1-B7H4-C1-N52S-FEAR (antibody, V domains shown)
VH: QVQLQQWGAGLLKPSETLSLTCAVYGGSFSGYYWSWIRQPPGKGLEWIGEISHSGSTNYNPSLKSRVTISIDTSKNQFSLKLTSVTAADTAVFYCARGLFNWNFDSWGQGTLVTVSS
VL: DIQMTQSPSSLSASVGDRVTITCRASQGIRNDLGWYQQKPGKAPKRLIYGASSLQSGVPSRFSGSGSGTEFTLTISSLQPEDFATYYCLQHNSYPRTFGQGTTVEIKR
notes: Full length human IgG1 with L234F, L235E, D265A, K409R (FEAR) heavy chain constant region and kappa light chain; bivalent, monospecific; also called IgG1-B7H4-C1-052S-FEAR

Legend:
[1] = molecular target: T1, recombinant hIgG1 Fc-tagged cynomolgus …; test: BLI (Octet HTX); Fc-tagged cynomolgus B7H4 coupled to AR2G sensor, bispecific antibody in solution (monovalent B7H4 binding); 2nd experiment (average of n = 3)
Description: In addition, the affinity of for cynomolgus monkey B7H4 was determined by BLI. […] Amine Reactive 2nd Generation (AR2G) biosensors (FortéBio, cat. no. 18-5092) were activated by reaction with 20 mM EDC (N-(3-Dimethylaminopropyl)-N′-ethylcarbodiimide hydrochloride) (FortéBio, cat. no. 18-1033) and 10 mM s-NHS (N-hydroxysulfosuccinimide sodium salt) (FortéBio, cat. no. 18-1067) for 300 s. The activated sensors were loaded with 10 μg/mL recombinant hIgG1 Fc-tagged cynomolgus monkey B7H4 (Creative BioMart, cat. no. VTCN1-1517R) in 10 mM Sodium Acetate pH 4.0 (FortéBio, cat. no. 18-1068) for 600 s and quenched with 1 M ethanolamine pH 8.5 (FortéBio, cat. no. 18-1071) for 300 s. […] A molecular mass of 150 kDa of the antibodies was used for calculations. For each antibody a reference sensor was used, which was incubated with Sample Diluent instead of antibody.
(§1) Data were acquired using Data Acquisition Software v9.0.0.49d (FortéBio) and analyzed with Data Analysis Software v9.0.0.12 (FortéBio). Data traces were corrected per antibody by subtraction of the reference sensor. The Y-axis was aligned to the last 10 s of the baseline, Interstep Correction alignment to dissociation and Savitzky-Golay filtering were applied. Data traces with a response<0.05 nm were excluded from analysis. The data was fitted with the 1:1 Global Full fit model using a window of interest for the association and dissociation times set at 100 s and 200 s respectively.
The experiment was performed as described above, with some small exceptions.

[2] = molecular target: T2, human recombinant His tagged B7H4 …; test: BLI (Octet HTX); antibody on anti-human IgG Fc capture sensor, human B7H4 ECD-His in solution; 1st experiment
Description: Target binding affinity of B7H4 antibodies was determined by label-free biolayer interferometry (BLI) on an Octet HTX instrument (FortéBio). Experiments were carried out while shaking at 1,000 RPM at 30° C. […] Anti-Human IgG Fc Capture (AHC) biosensors (FortéBio, cat. no. 18-5060) were pre-conditioned by exposure to 10 mM glycine (Sigma-Aldrich, cat. no. 15527) buffer pH 1.7 for 5 s, followed by neutralization in Sample Diluent (FortéBio, cat. no. 18-1048) for 5 s; both steps were repeated 2 times. Next, AHC sensors were loaded with antibody (1 μg/mL in Sample diluent) for 600 s. […] The theoretical molecular mass of human B7H4 and mouse B7H4 (as ECD-His tagged molecules) based on their amino acid sequences (26.8 kDa and 26.6 kDa respectively) were used for calculations. For each antibody a reference sensor was used, which was incubated with Sample Diluent instead of antigen. AHC sensors were regenerated by exposure to 10 mM glycine buffer pH 1.7 for 5 s, followed by neutralization in Sample Diluent for 5 s; both steps were repeated twice. Subsequently sensors were loaded again with antibody for the next cycle of kinetics measurements.
as §1, with “300” for “100”

| Binder | Kd [1] [nM] | koff [1] [s⁻¹] | kon [1] [M⁻¹ s⁻¹] | Kd [2] [nM] | koff [2] [s⁻¹] | kon [2] [M⁻¹ s⁻¹] |
| --- | --- | --- | --- | --- | --- | --- |
| B1 | 25 | 0.0027 | 120000 | – | – | – |
| B2 | – | – | – | 57 | 0.0054 | 94000 |
